For assay [1], the target named is T1, human VEGFR-2 (domains 1 to 7) (human, UniProt P35968 20-764).
T1 construct: The immunogen was VEGFR2-Fc-His and panning used VEGFR2-His; also called R2 D1-7; KDR
Description: ELISA on VEGFR-2 D1-7 and point mutants mut.1 to mut.10, antibody titration 6.86E-05 to 0.15 ug/ml, OD450. A general note: ELISA stands for enzyme-linked immunosorbent assay.

The next assay addresses T2, human VEGFR-1 (human, UniProt P17948 27-758, limits assumed).
T2 construct: also called flt-1
Description: ELISA, plate coated with hVEGFR1 (0.1 µg/mL), antibody titration, OD450-650. The procedure:
(§1) An ELSA plate was coated with 100 μL per well of human VEGFR-2, mouse VEGFR2, human VEGFR1 or human VEGFR3 overnight at 4° C., and then rinsed 3 times with PBS and blocked with 300 μL per well of 5% MPBS for 2 hr at 37° C. The wells were rinsed 3 times with PBS, and 100 μL of anti-VEGFR2 antibody, 2 fold serial dilutions, was added and incubated for 90 min at 37° C. The test solution was discarded and washed 3 times with PBS. Appropriate dilution of HRP-anti-Human IgG antibody in 5% MPBS (1:10000) was added and incubated for 60 min at 37° C., and the wells were washed 3 times with PBS. The wells were developed with 100 μL of substrate solution TMB and the reactions were terminated by adding 50 μL of 1 M sulfuric acid. The color turned yellow and the OD at 650 nm and at 450 nm was assayed.

The next assay has as its target T3, human VEGFR-3 (human, UniProt P35916 25-775, limits assumed).
T3 construct: also called flt-4
T3 sequence (looked up): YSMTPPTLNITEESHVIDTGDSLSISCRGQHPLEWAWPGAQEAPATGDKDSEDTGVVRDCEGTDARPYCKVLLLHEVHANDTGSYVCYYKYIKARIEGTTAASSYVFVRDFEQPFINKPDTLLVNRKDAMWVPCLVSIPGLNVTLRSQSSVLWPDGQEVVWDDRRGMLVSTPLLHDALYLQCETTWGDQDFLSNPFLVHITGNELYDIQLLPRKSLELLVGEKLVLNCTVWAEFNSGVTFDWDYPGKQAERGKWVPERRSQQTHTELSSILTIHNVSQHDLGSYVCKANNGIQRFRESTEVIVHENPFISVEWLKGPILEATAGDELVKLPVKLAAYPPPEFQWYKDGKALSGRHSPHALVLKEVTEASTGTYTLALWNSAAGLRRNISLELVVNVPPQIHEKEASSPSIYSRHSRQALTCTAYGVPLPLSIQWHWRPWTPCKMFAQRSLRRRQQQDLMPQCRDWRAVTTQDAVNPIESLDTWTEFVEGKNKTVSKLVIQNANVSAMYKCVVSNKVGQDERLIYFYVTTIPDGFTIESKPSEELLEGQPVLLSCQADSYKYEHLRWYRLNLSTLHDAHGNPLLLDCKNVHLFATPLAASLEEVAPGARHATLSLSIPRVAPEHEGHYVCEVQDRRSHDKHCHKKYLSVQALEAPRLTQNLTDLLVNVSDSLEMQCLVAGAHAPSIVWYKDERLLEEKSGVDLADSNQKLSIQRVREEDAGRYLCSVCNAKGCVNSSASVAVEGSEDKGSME
Description: ELISA, plate coated with hVEGFR3 (0.1 µg/mL), antibody titration, OD450-650. How it is done:
as §1

The target of another assay is mouse VEGFR-2 (mouse, UniProt P35918 20-762). Description: ELISA, plate coated with mouse VEGFR-2, HRP-anti-human IgG, OD450-650; bar chart of two runs (1st, 2nd); antibody concentration not given. How it is done: as §1
The target of assay [2] is T1, human VEGFR-2 (domains 1 to 7). Description: kinetic analysis with Rmax in RU, VEGFR-2 (domains 1 to 7) as analyte; method not named.
The target is the same in assay [3]. Description: ELISA and BIAcore; no numbers given.

T1 sequence (P35968 20-764 Q472H limits assumed): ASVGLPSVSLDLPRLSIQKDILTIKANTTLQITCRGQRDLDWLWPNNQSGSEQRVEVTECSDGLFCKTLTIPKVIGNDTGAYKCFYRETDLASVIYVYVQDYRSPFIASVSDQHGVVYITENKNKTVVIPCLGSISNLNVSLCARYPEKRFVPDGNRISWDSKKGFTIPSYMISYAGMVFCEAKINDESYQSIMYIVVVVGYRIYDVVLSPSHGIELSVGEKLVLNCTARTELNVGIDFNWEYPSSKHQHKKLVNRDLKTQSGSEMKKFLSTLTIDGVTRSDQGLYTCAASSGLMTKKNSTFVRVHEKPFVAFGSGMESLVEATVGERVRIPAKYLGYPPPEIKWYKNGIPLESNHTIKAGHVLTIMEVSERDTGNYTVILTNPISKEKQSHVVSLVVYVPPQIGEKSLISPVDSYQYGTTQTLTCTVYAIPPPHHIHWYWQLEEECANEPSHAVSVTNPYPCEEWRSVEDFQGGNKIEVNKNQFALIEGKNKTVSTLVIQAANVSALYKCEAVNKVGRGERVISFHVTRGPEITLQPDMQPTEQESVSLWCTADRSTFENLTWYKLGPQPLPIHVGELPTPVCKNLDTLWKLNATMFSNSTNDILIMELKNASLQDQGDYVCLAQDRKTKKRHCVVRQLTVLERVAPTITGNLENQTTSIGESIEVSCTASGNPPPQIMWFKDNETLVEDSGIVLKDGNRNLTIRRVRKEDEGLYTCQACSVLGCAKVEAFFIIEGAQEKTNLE
mouse VEGFR-2, sequence (P35918 20-762 limits assumed): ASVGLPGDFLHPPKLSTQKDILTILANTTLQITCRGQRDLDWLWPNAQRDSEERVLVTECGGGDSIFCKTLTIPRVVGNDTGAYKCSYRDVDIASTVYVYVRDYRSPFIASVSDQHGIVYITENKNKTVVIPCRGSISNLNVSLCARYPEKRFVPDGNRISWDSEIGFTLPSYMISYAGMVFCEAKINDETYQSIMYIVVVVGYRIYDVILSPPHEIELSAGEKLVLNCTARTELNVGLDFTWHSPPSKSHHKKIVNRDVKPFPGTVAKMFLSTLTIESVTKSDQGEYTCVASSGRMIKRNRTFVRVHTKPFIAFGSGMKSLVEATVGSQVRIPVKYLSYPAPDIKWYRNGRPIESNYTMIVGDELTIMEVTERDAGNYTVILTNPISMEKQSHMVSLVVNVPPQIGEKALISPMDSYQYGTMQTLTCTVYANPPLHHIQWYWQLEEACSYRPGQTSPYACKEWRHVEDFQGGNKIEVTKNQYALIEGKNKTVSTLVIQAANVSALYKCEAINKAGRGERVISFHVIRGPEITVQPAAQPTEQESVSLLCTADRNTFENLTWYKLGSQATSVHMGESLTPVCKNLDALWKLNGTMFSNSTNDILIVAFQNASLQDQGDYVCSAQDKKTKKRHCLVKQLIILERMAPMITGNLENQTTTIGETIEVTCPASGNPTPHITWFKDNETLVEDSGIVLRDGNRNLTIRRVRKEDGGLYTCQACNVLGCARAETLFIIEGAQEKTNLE
T2 sequence (P17948 27-758 limits assumed): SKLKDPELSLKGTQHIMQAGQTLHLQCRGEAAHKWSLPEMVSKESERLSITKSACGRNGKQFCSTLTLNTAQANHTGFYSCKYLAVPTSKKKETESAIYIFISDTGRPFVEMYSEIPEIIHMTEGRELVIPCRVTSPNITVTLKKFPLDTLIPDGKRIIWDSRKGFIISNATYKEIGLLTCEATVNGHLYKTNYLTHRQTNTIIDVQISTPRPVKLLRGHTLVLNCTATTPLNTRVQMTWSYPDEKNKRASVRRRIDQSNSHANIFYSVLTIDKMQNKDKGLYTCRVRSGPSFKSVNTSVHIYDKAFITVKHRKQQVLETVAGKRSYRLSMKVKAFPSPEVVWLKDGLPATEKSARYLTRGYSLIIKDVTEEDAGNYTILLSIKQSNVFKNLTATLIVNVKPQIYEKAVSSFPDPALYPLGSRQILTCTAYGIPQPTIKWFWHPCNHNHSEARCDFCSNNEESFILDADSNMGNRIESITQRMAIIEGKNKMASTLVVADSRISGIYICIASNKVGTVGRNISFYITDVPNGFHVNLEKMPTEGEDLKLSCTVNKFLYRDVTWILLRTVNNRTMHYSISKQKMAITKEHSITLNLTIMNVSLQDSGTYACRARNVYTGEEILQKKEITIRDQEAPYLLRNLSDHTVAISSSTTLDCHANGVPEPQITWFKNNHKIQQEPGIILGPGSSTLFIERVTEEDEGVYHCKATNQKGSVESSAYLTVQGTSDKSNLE

B1: 322A6 (antibody, V domains shown)
VH: EVQLQQSGPQLVRPGASAKISCKASGYAFTTYWMHWVKQRPGQGLEWIGMIDFSDSETKLNQRFKGKATLTVDKSSSTAYMQLSSPTSEDSAVYYCARDVRGNFDVWGAGTTVTVSS
VL: DIVLTQSPASLAVSLGQRATISCRASKSVSTSGYSYMHWYQQKPGQPPKLLIYLASNLESGVPARFSGSGSGTDFTLNIHPVEEEDAATYYCQHSRELPWTFGGGTKLEIKR
notes: Expressed as a full-length antibody in FreeStyle 293 cells from mouse-derived VH and VL; It was detected with anti-human IgG and anti-human kappa; also called 322A6 (45); c45
With B1, the “EC50 (read off the curve)” value in assay [1] is ~5 ng/mL. Besides, the binding result in the assay with human VEGFR-1 is reported as “no binding (tested: 20 µg/mL (about 1.3e-7 M))”; with human VEGFR-3, “no binding (tested: about 1.3e-7 M)”; with mouse VEGFR-2 it was “binds”. This molecule also yielded a Kd in assay [2] of 0.673 nM.

B2: 12A6 (antibody, V domains shown)
VH: QVQLQQSGPELVKPGASVKVSCKASGYSFTDYSMYWVKQSHGKSLEWIGYIDPYNDDTSYKQKFKGKATLTVDKSSSTAFMHLNSLTSEDSAVYYCAKGYADAMDYWGQGTSVTVSS
VL: DIQMIQSPSSLSASLGDTITITCHASQNINVWLSWYQQKPGNIPKLLIYKASNLHTGVPSRFSGSGSGTGFTLTISSLQPEDIATYYCQQGQSYPLTFGAGTKLELKR
notes: Expressed as a full-length antibody in FreeStyle 293 cells and detected with anti-human IgG
B2: in the assay with mouse VEGFR-2, the binding result is “no binding”. The molecule further registered an equilibrium dissociation constant (Kd) in assay [2] of 4.6 nM.

B3: Hu322B1HdH (antibody, V domains shown)
VH: QVQLVQSGAEVKKPGASVKVSCKASGYAFTTYWMHWVRQAPGQGLEWIGMIDFSDSETKLNQRFKGKATLTVDKSTSTAYMELSSLRSEDTAVYYCARDVRGNFDVWGQGTLVTVSS
VL: DIQMTQSPSSLSASVGDRVTITCRASKSVSTSGYSYMHWYQQKPGKAPKLLIYLASNLESGVPSRFSGSGSGTDFTLTISSLQPEDFATYYCQHSRELPWTFGQGTKVEIKR
notes: Humanized 322A6; The expression vector encodes the human kappa light-chain and human IgG1 C regions; also called 322A6(HuB1-Hd); combination clone of heavy chain (HuB1) and light chain (Hd) with 7 amino acid back mutation (7+0)
Turning to B3, in assay [3], the binding result was “binds”.

As usually defined, the EC50 (read off the curve) is the concentration giving half of the maximal effect. A low value points to higher potency in that assay. Broadly, the Kd is the concentration at which binding is half-saturated. High values mean weaker binding, low ones tighter binding.
